Patent publication US20220267436A1 (published 2022)

T1: human LAG-3 (human, UniProt P18627 23-525)
T1 chain: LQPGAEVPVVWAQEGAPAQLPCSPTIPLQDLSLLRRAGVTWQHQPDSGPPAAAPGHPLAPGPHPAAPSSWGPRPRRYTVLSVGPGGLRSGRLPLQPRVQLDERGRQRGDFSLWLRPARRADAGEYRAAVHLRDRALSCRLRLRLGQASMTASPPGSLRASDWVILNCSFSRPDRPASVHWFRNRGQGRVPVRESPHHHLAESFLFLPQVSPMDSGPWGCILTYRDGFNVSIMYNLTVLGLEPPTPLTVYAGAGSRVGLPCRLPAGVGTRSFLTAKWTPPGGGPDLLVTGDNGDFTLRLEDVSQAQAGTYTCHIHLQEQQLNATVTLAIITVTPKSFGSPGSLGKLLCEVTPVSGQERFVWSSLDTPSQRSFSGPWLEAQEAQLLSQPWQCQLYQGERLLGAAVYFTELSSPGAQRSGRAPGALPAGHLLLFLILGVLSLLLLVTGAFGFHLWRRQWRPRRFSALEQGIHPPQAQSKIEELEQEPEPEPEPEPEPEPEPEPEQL

B1: anti-CD47 monoclonal antibody (mAb) (antibody, V domains shown)
VH: EVQLVQSGAEVKKPGSSVKVSCKASGYSFTHHWIHWVRQAPGQGLEWMGMIDASDSETRLSQKFKDRVTITADKSTSTAYMELSSLRSEDTAVYYCARLGRYYFDYWGQGTTVTVSS
VL: EIVLTQSPATLSLSPGERATLSCRASENVGTYISWYQQKPGQAPRLLIYGASNRYTGIPARFSGSGSGTDFTLTISSLEPEDFAVYYCGESYGHLYTFGGGTKVEIKR
B2: bispecific antibody LAG3-E-HC (bispecific antibody)
heavy: not shown
light: EIVLTQSPATLSLSPGERATLSCRASENVGTYISWYQQKPGQAPRLLIYGASNRYTGIPARFSGSGSGTDFTLTISSLEPEDFAVYYCGESYGHLYTFGGGTKVEIKRTVAAPSVFIFPPSDEQLKSGTASVVCLLNNFYPREAKVQWKVDNALQSGNSQESVTEQDSKDSTYSLSSTLTLSKADYEKHKVYACEVTHQGLSSPVTKSFNRGEC
B3: bispecific antibody LAG3-G15-HC (bispecific antibody)
heavy: not shown
light: B2 light
B4: bispecific antibody LAG3-G9-HC (bispecific antibody)
heavy: not shown
light: B2 light
B5: bispecific antibody LAG3-E-HN (bispecific antibody)
heavy: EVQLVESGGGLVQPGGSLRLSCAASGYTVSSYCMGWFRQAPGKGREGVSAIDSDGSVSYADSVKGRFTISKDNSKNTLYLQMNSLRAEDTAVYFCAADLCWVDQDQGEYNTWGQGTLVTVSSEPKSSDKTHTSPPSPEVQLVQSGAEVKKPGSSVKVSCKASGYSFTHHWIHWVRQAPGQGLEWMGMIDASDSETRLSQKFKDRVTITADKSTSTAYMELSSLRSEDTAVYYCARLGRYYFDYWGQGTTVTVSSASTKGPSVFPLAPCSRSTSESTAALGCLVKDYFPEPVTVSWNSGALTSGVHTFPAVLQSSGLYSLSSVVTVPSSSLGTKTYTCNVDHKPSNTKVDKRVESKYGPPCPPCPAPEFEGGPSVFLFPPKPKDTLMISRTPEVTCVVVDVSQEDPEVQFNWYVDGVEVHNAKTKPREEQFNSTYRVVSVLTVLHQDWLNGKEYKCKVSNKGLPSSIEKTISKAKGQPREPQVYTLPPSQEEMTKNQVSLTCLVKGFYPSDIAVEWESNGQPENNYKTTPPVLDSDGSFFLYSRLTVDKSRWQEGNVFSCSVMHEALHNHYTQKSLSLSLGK
light: B2 light
B6: bispecific antibody LAG3-G9-HN (bispecific antibody)
heavy: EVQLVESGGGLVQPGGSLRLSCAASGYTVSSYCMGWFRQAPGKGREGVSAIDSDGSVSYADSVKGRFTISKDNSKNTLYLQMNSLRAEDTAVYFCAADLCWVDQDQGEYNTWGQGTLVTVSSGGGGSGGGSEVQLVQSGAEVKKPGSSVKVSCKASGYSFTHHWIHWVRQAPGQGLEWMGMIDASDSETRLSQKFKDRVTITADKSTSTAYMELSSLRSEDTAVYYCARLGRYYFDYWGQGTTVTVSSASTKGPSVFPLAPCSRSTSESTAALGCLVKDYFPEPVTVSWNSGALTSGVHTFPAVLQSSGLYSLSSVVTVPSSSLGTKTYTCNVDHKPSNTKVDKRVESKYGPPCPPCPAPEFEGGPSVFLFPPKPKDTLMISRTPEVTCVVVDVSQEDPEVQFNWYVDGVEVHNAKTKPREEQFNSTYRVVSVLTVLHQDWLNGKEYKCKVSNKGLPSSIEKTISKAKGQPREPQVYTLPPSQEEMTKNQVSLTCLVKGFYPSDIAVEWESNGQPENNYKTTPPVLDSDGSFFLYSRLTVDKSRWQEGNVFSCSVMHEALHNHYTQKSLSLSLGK
light: B2 light
B7: bispecific antibody LAG3-G15-HN (bispecific antibody)
heavy: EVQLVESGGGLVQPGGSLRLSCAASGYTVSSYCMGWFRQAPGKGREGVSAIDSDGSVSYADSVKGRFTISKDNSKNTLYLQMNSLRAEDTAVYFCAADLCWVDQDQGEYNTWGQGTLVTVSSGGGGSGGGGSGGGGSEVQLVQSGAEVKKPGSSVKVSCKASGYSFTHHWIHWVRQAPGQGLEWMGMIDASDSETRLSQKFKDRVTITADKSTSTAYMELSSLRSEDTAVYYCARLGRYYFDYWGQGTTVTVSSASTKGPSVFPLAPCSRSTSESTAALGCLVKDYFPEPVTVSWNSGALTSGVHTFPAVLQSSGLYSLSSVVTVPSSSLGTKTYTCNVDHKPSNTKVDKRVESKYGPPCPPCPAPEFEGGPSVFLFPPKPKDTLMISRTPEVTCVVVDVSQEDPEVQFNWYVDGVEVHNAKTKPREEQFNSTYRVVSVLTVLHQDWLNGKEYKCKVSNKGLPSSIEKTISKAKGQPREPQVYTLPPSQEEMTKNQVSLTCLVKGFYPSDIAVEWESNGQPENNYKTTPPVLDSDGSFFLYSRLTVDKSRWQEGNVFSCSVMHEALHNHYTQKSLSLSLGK
light: B2 light
B8: bispecific antibody LAG3-E-LC (bispecific antibody)
heavy: not shown
light: EIVLTQSPATLSLSPGERATLSCRASENVGTYISWYQQKPGQAPRLLIYGASNRYTGIPARFSGSGSGTDFTLTISSLEPEDFAVYYCGESYGHLYTFGGGTKVEIKRTVAAPSVFIFPPSDEQLKSGTASVVCLLNNFYPREAKVQWKVDNALQSGNSQESVTEQDSKDSTYSLSSTLTLSKADYEKHKVYACEVTHQGLSSPVTKSFNRGECEPKSSDKTHTSPPSPEVQLVESGGGLVQPGGSLRLSCAASGYTVSSYCMGWFRQAPGKGREGVSAIDSDGSVSYADSVKGRFTISKDNSKNTLYLQMNSLRAEDTAVYFCAADLCWVDQDQGEYNTWGQGTLVTVSS
B9: bispecific antibody LAG3-G9-LN (bispecific antibody)
heavy: not shown
light: EVQLVESGGGLVQPGGSLRLSCAASGYTVSSYCMGWFRQAPGKGREGVSAIDSDGSVSYADSVKGRFTISKDNSKNTLYLQMNSLRAEDTAVYFCAADLCWVDQDQGEYNTWGQGTLVTVSSGGGGSGGGSEIVLTQSPATLSLSPGERATLSCRASENVGTYISWYQQKPGQAPRLLIYGASNRYTGIPARFSGSGSGTDFTLTISSLEPEDFAVYYCGESYGHLYTFGGGTKVEIKRTVAAPSVFIFPPSDEQLKSGTASVVCLLNNFYPREAKVQWKVDNALQSGNSQESVTEQDSKDSTYSLSSTLTLSKADYEKHKVYACEVTHQGLSSPVTKSFNRGEC
B10: bispecific antibody LAG3-E-LN (bispecific antibody)
heavy: not shown
light: EVQLVESGGGLVQPGGSLRLSCAASGYTVSSYCMGWFRQAPGKGREGVSAIDSDGSVSYADSVKGRFTISKDNSKNTLYLQMNSLRAEDTAVYFCAADLCWVDQDQGEYNTWGQGTLVTVSSEPKSSDKTHTSPPSPEIVLTQSPATLSLSPGERATLSCRASENVGTYISWYQQKPGQAPRLLIYGASNRYTGIPARFSGSGSGTDFTLTISSLEPEDFAVYYCGESYGHLYTFGGGTKVEIKRTVAAPSVFIFPPSDEQLKSGTASVVCLLNNFYPREAKVQWKVDNALQSGNSQESVTEQDSKDSTYSLSSTLTLSKADYEKHKVYACEVTHQGLSSPVTKSFNRGEC
B11: bispecific antibody LAG3-G15-LN (bispecific antibody)
heavy: not shown
light: EVQLVESGGGLVQPGGSLRLSCAASGYTVSSYCMGWFRQAPGKGREGVSAIDSDGSVSYADSVKGRFTISKDNSKNTLYLQMNSLRAEDTAVYFCAADLCWVDQDQGEYNTWGQGTLVTVSSGGGGSGGGGSGGGGSEIVLTQSPATLSLSPGERATLSCRASENVGTYISWYQQKPGQAPRLLIYGASNRYTGIPARFSGSGSGTDFTLTISSLEPEDFAVYYCGESYGHLYTFGGGTKVEIKRTVAAPSVFIFPPSDEQLKSGTASVVCLLNNFYPREAKVQWKVDNALQSGNSQESVTEQDSKDSTYSLSSTLTLSKADYEKHKVYACEVTHQGLSSPVTKSFNRGEC

target: human CD47 (human, UniProt Q08722 19-323); assay: flow
Sequence (Q08722 19-323): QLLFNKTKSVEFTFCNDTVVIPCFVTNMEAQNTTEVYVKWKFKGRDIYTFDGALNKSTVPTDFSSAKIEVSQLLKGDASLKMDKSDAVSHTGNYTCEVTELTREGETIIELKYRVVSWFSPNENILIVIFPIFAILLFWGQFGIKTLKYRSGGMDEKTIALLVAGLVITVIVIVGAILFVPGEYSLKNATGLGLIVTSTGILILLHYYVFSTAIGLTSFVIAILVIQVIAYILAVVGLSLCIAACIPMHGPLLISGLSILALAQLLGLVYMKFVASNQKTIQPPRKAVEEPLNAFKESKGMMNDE

| Binder | EC50 [nM] |
| --- | --- |
| B1 | 1.01 |
| B2 | 1.17 |
| B3 | 0.911 |
| B4 | 0.865 |
| B5 | 4.44 |
| B6 | 3.96 |
| B7 | 3.85 |

Target: T1, human LAG-3
Assay: flow cytometry, CHO-K1 cells expressing human LAG-3; FIG. 1

| Binder | EC50 [nM] |
| --- | --- |
| B2 | 0.8 |
| B3 | 0.672 |
| B4 | 0.602 |
| B5 | 0.526 |
| B6 | 0.477 |
| B7 | 0.57 |

Target: T1, human LAG-3
Assay: flow cytometry, CHO-K1 cells expressing human LAG-3; FIG. 2

| Binder | EC50 [nM] |
| --- | --- |
| B8 | 0.552 |
| B9 | 0.322 |
| B10 | 0.448 |
| B11 | 0.535 |
